# B1: Bamlanivimab (antibody, V domains shown)
# VH: QVQLVQSGAEVKKPGSSVKVSCKASGGTFSNYAISWVRQAPGQGLEWMGRIIPILGIANYAQKFQGRVTITADKSTSTAYMELSSLRSEDTAVYYCARGYYEARHYYYYYAMDVWGQGTAVTVSS
# VL: not shown
# Molecular target: SARS-CoV-2 wild type RBD (319-541aa) (SARS-CoV-2, UniProt P0DTC2)
# Assay: SPR
# Conditions: both partners purified
binder,measurement,value
B1,Kd,1.4 nM
